According to patent US20230357391A1 (EXELIXIS, published 2023):
Residue numbers refer to the chain shown, from its start. Values joined by “and” are separate entries in the source; they are usually repeats but may differ in a detail not shown here. Equal values may be shown once.

T1: mouse CD47 (mouse, UniProt Q61735-2 19-158, limits assumed, biotinylated)
T1 construct: also called mCD47
T1 sequence (looked up): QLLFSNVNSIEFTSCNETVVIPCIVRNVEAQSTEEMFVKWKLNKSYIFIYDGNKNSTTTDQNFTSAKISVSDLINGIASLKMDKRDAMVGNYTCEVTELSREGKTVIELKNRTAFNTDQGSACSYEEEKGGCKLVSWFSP

B1: Antibody C40 (antibody, human IgG1, kappa, V domains shown)
VH: EVQLVESGGGLVQPGGSLRLSCAASGFTFSYYYIHWVRQAPGKGLEWVAWIDPYGHSTTYADSVKGRFTISADTSKNTAYLQMNSLRAEDTAVYYCARGGRGAMDYWGQGTLVTAST
VL: DIQMTQSPSSLSASVGDRVTITCRASQSVSSAVAWYQQKPGKAPKLLIYSASSLYSGVPSRFSGSRSGTDFTLTISSLQPEDFATYYCQQRYSSLLTFGQGTKVEIKR
notes: Full length IgG
B2: Antibody C59 (antibody, human IgG1, kappa, V domains shown)
VH: B1 VH with S30T, Y31S, W50Y, P53S, Y54K, G55H, H56G, S57T, T59Q, G102S
VL: B1 VL with Y92T, S93T
notes: Full length IgG

What was measured:
human CD47 on cells [1] = molecular target: T2, human CD47 on cells (human, UniProt Q08722 19-323); experiment: cell-based or functional assay
human CD47 on cells [2] = molecular target: T2, human CD47 on cells; experiment: flow cytometry, MDA-MB-231 cells
Experimental: Cells were harvested at 70-90% confluence on the day of the assay. Cells were collected by centrifugation at 200xg for 5 minutes and media was removed. Cells were resuspended at 2×10⁶ cells per mL in cold PBS. An 8-point antibody dilution series (2x concentration) was prepared in PBS to cover the expected binding affinities of the antibodies being tested. […] 50 µL per well of cell suspension was added. Plates were placed at 4° C. for 45-60 minutes.
Cells were collected by centrifugation at 400xg for 7 minutes and secondary antibody was removed. Cells were resuspended in 50 µL per well of PBS and analyzed by flow cytometry. Binding curves were calculated using the mean fluorescence intensity (MFI) of the FITC fluorescence signal on the cells.

mouse CD47 = molecular target: T1, mouse CD47; experiment: BLI (Octet), mouse CD47 on sensor; X = no mouse cross-reactivity
Text: Mouse CD47 was obtained from Acro Biosystems (Acro Cat. No. CD7-M82E4, Acro Cat. No. CD7-M522b) and biotinylated using standard protocols. The free biotin was removed by extensive dialysis against PBS. Biotinylated antigen (CD47) was immobilized on a streptavidin sensor. The cross-reactive antibodies were identified by the association to mouse CD47 using Octet.

Binder	IC50 (human CD47 on cells [1]) [nM]	EC50 (human CD47 on cells [2])	binding result (mouse CD47)
B1	5.38	> 1000 nM	–
B2	140	200 to 1000 nM and 550 nM	no binding
